Reference: the supplement of paper PMC11865577

Experiments:
Assay in all cases: pull-down binding Z-score (relative to library population); higher = stronger binding
[1] = tested on: G-clamp-N3 (biotin conjugate); details: RNA library: Library-1 (pre-miRNA loops + repeats)
Procedure, shortened: (§1)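 Biotin-conjugated small molecule (100 pmol) on streptavidin beads was incubated with 1 μg of heat-folded Cy5- or Cy3-end-labelled RNA library in phosphate/NaCl/KCl buffer at 25 °C for 60 min. Following three washes, RNA was eluted with hot SDS and hybridised at 55.5 °C for 20 h to a DNA barcode microarray. The binding value is a Z-score computed from the library mean and standard deviation, after subtraction of beads without compound and averaging of barcoded replicate probes with the highest and lowest excluded.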

[2] = tested on: TO-3-N3 (biotin conjugate); details: RNA library: Library-2
Procedure, shortened: as §1

[3] = tested on: TO-3-N3-2 (biotin conjugate); details: RNA library: Library-2
Procedure, shortened: as §1

[4] = tested on: TO-N3 (biotin conjugate); details: RNA library: Library-2
Procedure, shortened: as §1

[5] = tested on: TO-N3-2 (biotin conjugate); details: RNA library: Library-2
Procedure, shortened: as §1

Sequence	pull-down binding Z-score [1]	pull-down binding Z-score [2]	pull-down binding Z-score [3]	pull-down binding Z-score [4]	pull-down binding Z-score [5]
AGGUUGGCUGGGCCAGGCCUGACCU [hsa-mir-4722]	0.156	0.0532	-0.00273	0.435	1.16
AGGUUUAUGACUGGGCAUUUCUCACCCAAUGCCCAAUAUUGAACUU [hsa-mir-4431]	-0.59	-0.564	-0.213	-0.752	-0.666
AGGUUUGUGUCCAAUACAGUCCACACCU [hsa-mir-3200]	-0.861	-0.745	-0.367	-0.879	-0.572
AGUAGCUGGGAAUACAGGUGUGUGCCACCAUGCCUCUACAAGCUACC [hsa-mir-7851]	-0.609	-0.469	-0.134	-0.0861	0.445
AGUAUGGAUUAAAUUUAUAUUUUCCUCGAUACU [hsa-mir-8084]	0.482	0.413	0.212	0.316	-0.547
AGUAUUUUAAUCAUAGAUUGUAUUUAGUUAGUUUUUAAUACU [hsa-mir-4637]	-0.0232	-0.732	0.157	-0.955	-0.965
AGUCACUUACACUACAUGUCACU [hsa-mir-892a]	-0.82	-0.926	-0.63	-1.08	-0.587
AGUCACUUAGAUUACAUGUCACU [hsa-mir-892c]	-1.24	0.00628	0.0543	-0.172	-0.486
AGUCACUUAGAUUACAUGUGACU [hsa-mir-888]	0.394	0.0487	-0.513	-0.368	-0.915
AGUCCAAAGGAAAGGGCU [hsa-mir-8077]	-0.578	0.999	0.232	0.822	-0.0277
AGUCCGUGCAUCCGCCCUUCGAUGCUUGGGUU [hsa-mir-3182]	-1.11	-0.405	-0.389	-0.278	0.421
AGUCCUGUAAUUAGAUCUCAGGACU [hsa-mir-625]	-0.0681	-0.745	-0.739	-0.817	-0.88
AGUCUCUGAAGAGAGCUGUGGACUGA [hsa-mir-6721]	1.18	0.726	0.732	0.839	0.916
AGUCUGUCUCAUACCCAACCAGAUU [hsa-mir-205]	-1.11	0.258	0.167	0.14	-0.233
AGUGAAAUAAAGGUCCAUCUCCUGCCUAUUUAUUACUUUGCU [hsa-mir-1243]	-1.12	-0.671	-0.112	-0.718	-0.5
AGUGAGCUGAGAUCACGCAACU [hsa-mir-1273f]	0.617	-0.37	0.00609	0.206	0.629
AGUGAGGCGUCGGCUGUGUUUCU [hsa-mir-2110]	-0.519	0.387	0.174	0.741	1.03
AGUGAGUUGAUUACUUCUCACU [hsa-mir-4676]	-0.179	-0.0959	-0.441	-0.26	-0.222
AGUGCAGUAUGGUGAAGUCAAUCUGUAAU [hsa-mir-590]	1.31	-0.357	0.0335	-0.148	0.424

Sequence	pull-down binding Z-score [1]	pull-down binding Z-score [2]	pull-down binding Z-score [3]	pull-down binding Z-score [4]	pull-down binding Z-score [5]
AGUGCCUCACAGCCGCACAGGACCGAGGAUGCU [hsa-mir-4737]	0.613	0.0032	-0.204	0.371	0.917
AGUGCUAGGACACU [hsa-mir-374c]	-0.247	-0.441	-0.413	-0.616	-0.579
AGUGGAAAAAGUUCUUUUCUUCCUCU [hsa-mir-3192]	0.387	0.0782	0.895	0.0678	-0.263
AGUGGACGAGUCUCAUUA [hsa-mir-3193]	-0.476	0.224	0.319	0.678	0.613
AGUGGCCAAUUCCU [hsa-mir-4251]	-0.851	-0.482	-0.313	-0.607	-0.274
AGUGGUGCAAUCUCAGUUCACU [hsa-mir-3135a]	-0.112	0.121	-0.238	-0.0142	-0.196
AGUGUGCAGUCAUCCACACA [hsa-mir-4731]	-0.603	-0.32	-0.196	-0.519	-0.401
AGUGUUGUUUUUUCCCCCGCCAAUAUU [hsa-mir-92b]	-0.606	-0.34	0.29	-0.16	0.0118
AGUUACACAGCUCACGAGUGCCU [hsa-mir-370]	-0.352	-0.261	-0.0679	0.113	0.694
AGUUAGAAUUCUUAAGUAUCAAAACUAAAU [hsa-mir-4760]	-1.22	0.216	0.252	0.106	-0.12
AGUUCAGGAGGUGGCACUGCUGUGUGUGAGCU [hsa-mir-6876]	1.55	0.801	0.631	0.97	1.27
AGUUCCUGAUUAAGAAAUGGAAUU [hsa-mir-4699]	-0.224	-0.435	-0.107	-0.814	-1
AGUUCGCUUUUAUUAAUGACGAAUA [hsa-mir-410]	-0.994	-0.624	-0.0101	-0.628	-0.121
AGUUGAACACUUGUUGGGACAACCU [hsa-mir-4421]	-0.336	0.939	0.156	0.971	0.711
AGUUGGACACUCCAUGUGGUAGAGUGUC [hsa-mir-223]	0.453	0.617	-0.0653	0.563	0.0461
AGUUGUGAAUUCUCAAAACACCU [hsa-mir-660]	-0.342	-0.401	-0.349	-0.417	-0.129
AGUUUCUGGAAGUUCUGACAUUCCAGAAACU [hsa-mir-3199-1]	-0.18	-0.846	-0.409	-1.1	-0.95
AGUUUCUGGAAUGUCAGAACUUCCAGAAACU [hsa-mir-3199-2]	-0.327	0.748	0.034	0.392	-0.865
